In assay [1] the target is CXCL8 receptors on bovine peripheral blood neutrophils. As to the kind of experiment: biotCXCL8 binding inhibition on bovine neutrophils; 10 ng/ml unlabeled CXCL8 2 h at 4 C, wash, then 1 ug/ml biotCXCL8; cell ELISA. For orientation: ELISA stands for enzyme-linked immunosorbent assay.
Assay [2] shares this target. As to the kind of experiment: displacement of 20 pM 125I-CXCL8 from 10^6 bovine neutrophils, 45 min on ice.
The target is the same in assay [3]. As to the kind of experiment: 1000 ng/ml biotCXCL8 on medium-treated bovine neutrophils; streptavidin-enzyme and ABTS; ELISA plate reader.
Assay [4] shares this target. As to the kind of experiment: cell-based or functional assay.
Assay [5] shares this target. As to the kind of experiment: biotCXCL8 binding inhibition on bovine neutrophils; 10 ng/ml analogue 2 h at 4 C, wash, then 1 ug/ml biotCXCL8; cell ELISA.
Assay [6] has the same target. As to the kind of experiment: displacement of 20 pM 125I-CXCL8 from bovine neutrophils; reference is unlabeled wildtype CXCL8.

Several values for one entry are separate records, joined by “and”; a condition that tells them apart may be missing. Equal entries are not always repeated.

Experimental findings from patent US20090270318A1 are described below.

Broadly, the IC50 is the concentration needed to halve the response being measured. A low value points to higher potency.

For the molecule “bovine CXCL8 (wild type, unlabeled) (from UniProt P79255 23-101) (ligand)”, the percent of ^biotCXCL8 binding blocked in assay [1] came out at 30%. Also, the IC50 in assay [2] was 0.12 nM.

On to “biotinylated CXCL8 (from UniProt P79255 23-101) (ligand)”, for which the OD405 in assay [3] was 0.5 to 0.6 OD405.

B1: bovine CXCL8(3-74)K11R/G31P (ligand)
chain: TELRCQCIRTHSTPFHPKFIKELRVIESPPHCENSEIIVKLTNGNEVCLNPKEKWVQKVVQVFVKRAEKQDP
Take B1: in assay [4], the IC50, inhibition of bovine neutrophil chemotaxis to 1 µg/ml (129 nM) CXCL8 was 0.11 nM; the agonist activity: chemotaxis of bovine neutrophils to 100 ng/ml analogue, as percent of the response to 1 ng/ml CXCL8 was found to be 13.9%; the agonist activity: chemotaxis of bovine neutrophils to 100 ng/ml analogue, as percent of the response to 100 ng/ml CXCL8 was determined as 5.4%; the concentration for complete blocking of bovine neutrophil chemotaxis to 1 µg/ml CXCL8 came out at 10 nM. In addition, in assay [4], the concentration for complete inhibition of bovine neutrophil chemotaxis to human CXCL5, CXCL1 or CXCL8 was 3 nM and 20 nM; the concentration reducing bovine neutrophil chemotaxis to 1 ng/ml hCXCL1 to 50% came to 0.26 nM; the concentration reducing bovine neutrophil chemotaxis to 1 ng/ml hCXCL5 to 50% came to 0.06 nM; the concentration reducing bovine neutrophil chemotaxis to 10 ng/ml hCXCL8 by 50% was determined as 0.04 nM. The reduction of bovine neutrophil chemotactic response to 1 µg/ml (129 nM) CXCL8 by 12.9 pM analogue in assay [4] came to 33%. In addition, the percent of ^biotCXCL8 binding blocked in assay [5] was 95%. In assay [6], the fold more effective than wildtype CXCL8 in inhibiting 125I-CXCL8 binding came out at 100 fold. This molecule displayed a concentration for half-maximal inhibition (IC50) in assay [2] of 0.004 nM.

B2: bovine CXCL8(3-74)K11R/P32G (ligand)
chain: TELRCQCIRTHSTPFHPKFIKELRVIESGGHCENSEIIVKLTNGNEVCLNPKEKWVQKVVQVFVKRAEKQDP
Turning to B2, the agonist activity: chemotaxis of bovine neutrophils to 100 ng/ml analogue, as percent of the CXCL8 response in assay [4] worked out at 38.3%. This molecule also yielded a percent of ^biotCXCL8 binding blocked in assay [5] of 48%.
